How the values were obtained:
[1] = target: anti-CD28 Fab (SEQ ID NOs: 202, 203); assay: phage ELISA, Fab on plate, CD28 antigen as competitor;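 further: wells pre-incubated with CD28 antigen in blocking buffer (reference: blocking buffer only) before adding crude clonal phage supernatant, bound phage read with HRP-coupled anti-M13 antibody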
Description: (§1) After panning, phage infected bacteria were plated out and colonies picked into 96 well blocks. Clonal phage was then amplified and separated from bacterial cells via centrifugation.
(§2) Clonal phage were harvested as crude supernatants and screened via standard ELISAs. […] Prior to the addition of clonal phage, wells were incubated with blocking buffer and CD28 antigen or blocking buffer alone. Without washing or aspirating, clonal phage supernatants were then added to the wells and incubated for a short time. Wells were then washed followed by detection of bound phage using a horse radish conjugated anti-M13 antibody. Clonal phage of interest were then sent for sequence analysis.

[2] = target: anti-CD28 Fab (SEQ ID NOs: 202, 203); assay: phage ELISA, Fab on plate;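 further: ELISA of crude clonal phage supernatants on the plate, wells preloaded with CD28 antigen or only blocking buffer, captured phage read out via HRP-linked anti-M13 antibody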
Description: as §1, §2

[3] = target: Anti-CD28 Fab (SEQ ID NOs: 202, 203); assay: phage binding ELISA on captured Fab;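 further: clonal phage supernatants added briefly to wells pre-incubated with CD28 antigen or with blocking buffer only, then washed, bound phage read by ELISA using HRP-coupled anti-M13 antibody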
Sequence of Anti-CD28 Fab (SEQ ID NOs: 202, 203) (VH, as listed by the source, chain 1 of 2): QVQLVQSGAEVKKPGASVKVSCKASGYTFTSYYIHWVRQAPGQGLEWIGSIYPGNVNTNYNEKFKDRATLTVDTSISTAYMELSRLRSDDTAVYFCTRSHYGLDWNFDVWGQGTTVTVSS
Sequence of Anti-CD28 Fab (SEQ ID NOs: 202, 203) (VL, as listed by the source, chain 2 of 2): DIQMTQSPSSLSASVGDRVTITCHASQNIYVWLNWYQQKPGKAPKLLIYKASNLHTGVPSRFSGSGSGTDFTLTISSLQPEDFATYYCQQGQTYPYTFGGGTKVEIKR
Description: (§3) Clonal phage were harvested as crude supernatants and screened via standard ELISAs. […] Prior to the addition of clonal phage, wells were incubated with blocking buffer and CD28 antigen or blocking buffer alone. Without washing or aspirating, clonal phage supernatants were then added to the wells and incubated for a short time. Wells were then washed followed by detection of bound phage using a horse radish conjugated anti-M13 antibody.

[4] = target: Anti-CD28 Fab (SEQ ID NOs: 202, 203); assay: phage binding ELISA on captured Fab; competitor CD28 antigen;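 on Anti-CD28 Fab signal in the presence of CD28: wells pretreated with CD28 antigen in blocking buffer or buffer only, then clonal phage supernatants added briefly without washing, bound phage detected via horseradish-conjugated anti-M13 antibody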
Description: as §3

Sequence of anti-CD28 Fab (SEQ ID NOs: 202, 203) (VH, as listed by the source, chain 1 of 2): as the sequence (VH, as listed by the source, chain 1 of 2) above
Sequence of anti-CD28 Fab (SEQ ID NOs: 202, 203) (VL, as listed by the source, chain 2 of 2): as the sequence (VL, as listed by the source, chain 2 of 2) above

## TCAAGASWEWPACL [Phage-1109]
[1]
  Anti-CD28 Fab signal in the presence of CD28: 0.08
[2]
  Anti-CD28 Fab signal: 1.48

## YCAGHSPEHMWKCL [Phage-98]
[3]
  Anti-CD28 Fab signal: 2.3
[4]
  Anti-CD28 Fab signal in the presence of CD28: 0.06

## WCGVGMDWRWPECL [Phage-1122]
[1]
  Anti-CD28 Fab signal in the presence of CD28: 0.16
[2]
  Anti-CD28 Fab signal: 1.44

## TCSAGFSYKWPWCW [Phage-1117]
[1]
  Anti-CD28 Fab signal in the presence of CD28: 0.06
[2]
  Anti-CD28 Fab signal: 1.45

## TCSAGATYSWPSCF [Phage-1187]
[1]
  Anti-CD28 Fab signal in the presence of CD28: 0.09
[2]
  Anti-CD28 Fab signal: 1.21

## TCSAGATYTWPSCF [Phage-1125]
[1]
  Anti-CD28 Fab signal in the presence of CD28: 0.06
[2]
  Anti-CD28 Fab signal: 1.42

## TCAAGATYSWPDCF [Phage-1102]
[1]
  Anti-CD28 Fab signal in the presence of CD28: 0.06
[2]
  Anti-CD28 Fab signal: 1.51

## SCAAGAHYKWPVCI [Phage-1100]
[1]
  Anti-CD28 Fab signal in the presence of CD28: 0.06
[2]
  Anti-CD28 Fab signal: 1.51

## YCDGHAPEYMEKCM [Phage-148]
[3]
  Anti-CD28 Fab signal: 2.21
[4]
  Anti-CD28 Fab signal in the presence of CD28: 0.07

## QCAAGAMWTWPVCF [Phage-1103]
[1]
  Anti-CD28 Fab signal in the presence of CD28: 0.07
[2]
  Anti-CD28 Fab signal: 1.5

## RCAAGAMWTWPACF [Phage-1179]
[1]
  Anti-CD28 Fab signal in the presence of CD28: 0.06
[2]
  Anti-CD28 Fab signal: 1.25

## TCEDGFHFSWPECF [Phage-1123]
[1]
  Anti-CD28 Fab signal in the presence of CD28: 0.07
[2]
  Anti-CD28 Fab signal: 1.44

## YCAGHLPEYMPHCI [Phage-91]
[3]
  Anti-CD28 Fab signal: 2.31
[4]
  Anti-CD28 Fab signal in the presence of CD28: 0.09

## TCAAGAHYTWPTCL [Phage-1111]
[1]
  Anti-CD28 Fab signal in the presence of CD28: 0.07
[2]
  Anti-CD28 Fab signal: 1.47

## TCSAGATYKWPVCL [Phage-1112]
[1]
  Anti-CD28 Fab signal in the presence of CD28: 0.06
[2]
  Anti-CD28 Fab signal: 1.47

## LCAAGATYPWPICL [Phage-1115]
[1]
  Anti-CD28 Fab signal in the presence of CD28: 0.08
[2]
  Anti-CD28 Fab signal: 1.46

## YCDGHRGEYLQKCL [Phage-141]
[3]
  Anti-CD28 Fab signal: 2.22
[4]
  Anti-CD28 Fab signal in the presence of CD28: 0.09

## TCAAGAHYLWPHCL [Phage-1104]
[1]
  Anti-CD28 Fab signal in the presence of CD28: 0.12
[2]
  Anti-CD28 Fab signal: 1.5

## SCSAGALWKWPVCF [Phage-1116]
[1]
  Anti-CD28 Fab signal in the presence of CD28: 0.07
[2]
  Anti-CD28 Fab signal: 1.45

## YCEGHTVEYMAKCL [Phage-149]
[3]
  Anti-CD28 Fab signal: 2.2
[4]
  Anti-CD28 Fab signal in the presence of CD28: 0.08

## TCAAGATYTWPTCF [Phage-1108]
[1]
  Anti-CD28 Fab signal in the presence of CD28: 0.05
[2]
  Anti-CD28 Fab signal: 1.48

## ICAAGFIWSWPACF [Phage-1101]
[1]
  Anti-CD28 Fab signal in the presence of CD28: 0.08
[2]
  Anti-CD28 Fab signal: 1.51

## YCDGHSWEYIGKCL [Phage-70]
[3]
  Anti-CD28 Fab signal: 2.37
[4]
  Anti-CD28 Fab signal in the presence of CD28: 0.07

## TCAAGVHFGWPLCF [Phage-1107]
[1]
  Anti-CD28 Fab signal in the presence of CD28: 0.07
[2]
  Anti-CD28 Fab signal: 1.49

## PCAAGAMWAWPYCL [Phage-1105]
[1]
  Anti-CD28 Fab signal in the presence of CD28: 0.05
[2]
  Anti-CD28 Fab signal: 1.49

## YCEGHTAEYMQKCL [Phage-67]
[3]
  Anti-CD28 Fab signal: 2.38
[4]
  Anti-CD28 Fab signal in the presence of CD28: 0.08

## TCSAGATYMWPACF [Phage-1120]
[1]
  Anti-CD28 Fab signal in the presence of CD28: 0.1
[2]
  Anti-CD28 Fab signal: 1.44

## TCSAGATYKWPACF [Phage-1172]
[1]
  Anti-CD28 Fab signal in the presence of CD28: 0.05
[2]
  Anti-CD28 Fab signal: 1.29

## TCSAGATYAWPACF [Phage-1121]
[1]
  Anti-CD28 Fab signal in the presence of CD28: 0.08
[2]
  Anti-CD28 Fab signal: 1.44

## SCSAGAMYQWPLCF [Phage-1118]
[1]
  Anti-CD28 Fab signal in the presence of CD28: 0.09
[2]
  Anti-CD28 Fab signal: 1.44

## TCAAGAMYQWPECF [Phage-1110]
[1]
  Anti-CD28 Fab signal in the presence of CD28: 0.06
[2]
  Anti-CD28 Fab signal: 1.48

## YCDGHSPQYIEKCL [Phage-92]
[3]
  Anti-CD28 Fab signal: 2.31
[4]
  Anti-CD28 Fab signal in the presence of CD28: 0.07

## YCDGHTLEYMWKCL [Phage-95]
[3]
  Anti-CD28 Fab signal: 2.31
[4]
  Anti-CD28 Fab signal in the presence of CD28: 0.13

## YCEGHSEEYISKCL [Phage-99]
[3]
  Anti-CD28 Fab signal: 2.3
[4]
  Anti-CD28 Fab signal in the presence of CD28: 0.08

## YCDGHIEEYRAKCL [Phage-145]
[3]
  Anti-CD28 Fab signal: 2.21
[4]
  Anti-CD28 Fab signal in the presence of CD28: 0.07

## TCAAGANWHWPWCF [Phage-1114]
[1]
  Anti-CD28 Fab signal in the presence of CD28: 0.15
[2]
  Anti-CD28 Fab signal: 1.46

## SCSAGATYEWPYCF [Phage-1113]
[1]
  Anti-CD28 Fab signal in the presence of CD28: 0.06
[2]
  Anti-CD28 Fab signal: 1.47

## SCSAGATYQWPYCF [Phage-1176]
[1]
  Anti-CD28 Fab signal in the presence of CD28: 0.06
[2]
  Anti-CD28 Fab signal: 1.26

## YCEGHTMEYMWKCL [Phage-90]
[3]
  Anti-CD28 Fab signal: 2.31
[4]
  Anti-CD28 Fab signal in the presence of CD28: 0.07

## YCDGHEPQYMLKCL [Phage-88]
[3]
  Anti-CD28 Fab signal: 2.32
[4]
  Anti-CD28 Fab signal in the presence of CD28: 0.12

Reference: patent US20260274955A1 (JANUX THERAPEUTICS, published 2026)
